In patent US20250092109A1 (XILIO DEVELOPMENT, published 2025):
Changes are numbered by the printed parent chain. Names may count otherwise.

T1: CD25 on CD25+ cells (UniProt P01589 22-272, limits assumed)
T1 sequence (looked up): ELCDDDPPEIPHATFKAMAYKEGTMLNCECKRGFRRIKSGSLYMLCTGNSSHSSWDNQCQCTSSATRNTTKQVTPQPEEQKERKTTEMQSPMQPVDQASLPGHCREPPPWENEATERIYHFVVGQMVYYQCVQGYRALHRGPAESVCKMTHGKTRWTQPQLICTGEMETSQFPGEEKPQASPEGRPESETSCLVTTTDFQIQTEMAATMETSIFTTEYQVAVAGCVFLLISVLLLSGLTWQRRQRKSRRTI

B1: VHH1 (VHH)
VHH: EVQLVESGGGLVQPGGSLRLSCAASGSIFSINVMGWYRQAPGKQRELVAAISSGGSTNYADSVKGRFTISRDNAKNTVYLQMNSLKPEDTAVYYCMYASSWYEDETDYWGQGTQVTVSS
notes: In the functional rows it stood as the masking moiety of constructs C7, C2, C4 and C6, fused to an Fc chain; also called Parental; parental anti-IL-2
B2: VHH46 (VHH)
VHH: B1 VHH
B3: VHH31 (VHH)
VHH: B1 VHH with I31S, Q44G, R45L, M96A, W101F
notes: also called I31S, Q44G, R45L, M96A, W101F
B4: VHH21 (VHH)
VHH: B1 VHH with I31S, M96A, W101F
notes: also called I31S, M96A, W101F
B5: VHH6 (VHH)
VHH: B1 VHH with Q44G
notes: In the functional rows it stood as the masking moiety of construct C8; also called Q44G
B6: VHH9 (VHH)
VHH: B1 VHH with Q44G, M96A, W101F
notes: In the functional rows it stood as the masking moiety of construct C12; also called Q44G, M96A, W101F
B7: VHH12 (VHH)
VHH: B1 VHH with Q44G, M96A, W101Y
notes: In the functional rows it stood as the masking moiety of constructs C13 and C1; also called Q44G, M96A, W101Y
B8: VHH7 (VHH)
VHH: B1 VHH with Q44G, R45L
notes: In the functional rows it stood as the masking moiety of construct C9; also called Q44G, R45L
B9: VHH36 (VHH)
VHH: B1 VHH with I31S, Q44G, R45L, M96A, W101Y
notes: In the functional rows it stood as the masking moiety of construct C11; also called I31S, Q44G, R45L, M96A, W101Y
B10: VHH26 (VHH)
VHH: B1 VHH with I31S, M96A, W101Y
notes: In the functional rows it stood as the masking moiety of construct C10; also called I31S, M96A, W101Y
B11: VHH40 (VHH)
VHH: B1 VHH with W109R, Q114L
notes: also called W109R, Q114L
B12: VHH5 (VHH)
VHH: B1 VHH with M96A
notes: also called M96A
B13: IL-2 V7 (ligand)
chain: APTSSSTKKTQLQLEHLLLDLQMILNGINNYKNPKLTRMLTSKFYMPKKATELKHLQCLEESLKPLEEVLNLAQSKNFHLRPRDLISNINVIVLELKGSETTFMCEYADETATIVEFLNRWITFAQSIISTLT
B14: IL-2 V2 (ligand)
chain: B13 chain with R38A, S42A, Y45A, S62A

Assays:
[1] = biological target: T2, IL-2 (UniProt P60568 21-153); assay: SPR
T2 construct: also called interleukin 2
Target sequence in this assay (P60568 21-153 limits assumed): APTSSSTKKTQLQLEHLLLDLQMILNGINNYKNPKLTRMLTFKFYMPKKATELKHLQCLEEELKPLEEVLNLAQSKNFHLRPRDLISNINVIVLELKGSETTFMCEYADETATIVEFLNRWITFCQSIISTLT

[2] = biological target: B14; assay: cell-based or functional assay
[3] = biological target: IL-2 V3 (Homo sapiens (Human), UniProt P60568 21-153); assay: cell-based or functional assay
[4] = biological target: T2, IL-2; assay: SPR, criterion of kinetic Group 2
[5] = biological target: T1, CD25 on CD25+ cells; assay: cell-based or functional assay

## B1
[1]
  Kd: 0.0601 nM
  koff: 3.28e-05 s⁻¹
  kon: 546000 M⁻¹ s⁻¹
[2]
  EC50 (pM) of intact construct C7, HEK Blue cell-based reporter assay: 3390 pM
  Fold Change (Intact/Cleaved), construct C7, HEK Blue assay: 112 fold
  Fold Change (Intact/Parental), construct C7, HEK Blue assay: 101 fold
[3]
  Average EC50 (nM) with MMP, construct C2, pSTAT5 on CD8+ T cells of hPBMCs: 0.23 nM
  Average EC50 (nM) with MMP, construct C4, pSTAT5 on CD8+ T cells of hPBMCs: 0.26 nM
  Average EC50 (nM) with MMP, construct C6, pSTAT5 on CD8+ T cells of hPBMCs: 0.28 nM
  Average EC50 (nM) without MMP, construct C2, pSTAT5 on CD8+ T cells of hPBMCs: 137 nM
  Average EC50 (nM) without MMP, construct C4, pSTAT5 on CD8+ T cells of hPBMCs: 136 nM
  Average EC50 (nM) without MMP, construct C6, pSTAT5 on CD8+ T cells of hPBMCs: 470 nM
  Fold Change (Cleaved/Unmasked Control), construct C2: 4.2 fold
  Fold Change (Cleaved/Unmasked Control), construct C4: 4.7 fold
  Fold Change (Cleaved/Unmasked Control), construct C6: 5.1 fold
  Fold Masking (Uncleaved/Unmasked Control), construct C2: 2490 fold
  Fold Masking (Uncleaved/Unmasked Control), construct C4: 2470 fold
  Fold Masking (Uncleaved/Unmasked Control), construct C6: 8550 fold

## B2
[3]
  Average EC50 (nM) with MMP, construct C5, pSTAT5 on CD8+ T cells of hPBMCs: 0.25 nM
  Average EC50 (nM) without MMP, construct C5, pSTAT5 on CD8+ T cells of hPBMCs: 411 nM
  Fold Change (Cleaved/Unmasked Control), construct C5: 4.5 fold
  Fold Masking (Uncleaved/Unmasked Control), construct C5: 7470 fold

## B3
[4]
  kd relative to VHH1 kd: > 6 fold of VHH1 kd

## B4
[4]
  kd relative to VHH1 kd: > 6 fold of VHH1 kd

## B5
[1]
  Kd: 0.00457 nM
  koff: 2.18e-06 s⁻¹
  kon: 476000 M⁻¹ s⁻¹
[2]
  EC50 (pM) of intact construct C8, HEK Blue cell-based reporter assay: 4270 pM
  Fold Change (Intact/Cleaved), construct C8, HEK Blue assay: 176 fold
  Fold Change (Intact/Parental), construct C8, HEK Blue assay: 127 fold

## B6
[1]
  Kd: 10.9 nM
[2]
  EC50 (pM) of intact construct C12, HEK Blue cell-based reporter assay: 4140 pM
  Fold Change (Intact/Cleaved), construct C12, HEK Blue assay: 180 fold
  Fold Change (Intact/Parental), construct C12, HEK Blue assay: 123 fold

## B7
[1]
  Kd: 12.7 nM
  koff: 3.97 s⁻¹
[2]
  EC50 (pM) of intact construct C13, HEK Blue cell-based reporter assay: 3130 pM
  Fold Change (Intact/Cleaved), construct C13, HEK Blue assay: 158 fold
  Fold Change (Intact/Parental), construct C13, HEK Blue assay: 93.1 fold
[3]
  Average EC50 (nM) with MMP, construct C1, pSTAT5 on CD8+ T cells of hPBMCs: 0.051 nM
  Average EC50 (nM) without MMP, construct C1, pSTAT5 on CD8+ T cells of hPBMCs: 28.1 nM
  Fold Change (Cleaved/Unmasked Control), construct C1: 0.9 fold
  Fold Masking (Uncleaved/Unmasked Control), construct C1: 511 fold

## B8
[1]
  Kd: 0.187 nM
  koff: 0.000111 s⁻¹
  kon: 595000 M⁻¹ s⁻¹
[2]
  EC50 (pM) of intact construct C9, HEK Blue cell-based reporter assay: 6240 pM
  Fold Change (Intact/Cleaved), construct C9, HEK Blue assay: 201 fold
  Fold Change (Intact/Parental), construct C9, HEK Blue assay: 186 fold

## B9
[1]
  Kd: 3.99 nM
  koff: 0.00237 s⁻¹
  kon: 594000 M⁻¹ s⁻¹
[4]
  kd relative to VHH1 kd: > 6 fold of VHH1 kd
[2]
  EC50 (pM) of intact construct C11, HEK Blue cell-based reporter assay: 2860 pM
  Fold Change (Intact/Cleaved), construct C11, HEK Blue assay: 118 fold
  Fold Change (Intact/Parental), construct C11, HEK Blue assay: 84.9 fold

## B10
[1]
  Kd: 1.35 nM
  koff: 0.00427 s⁻¹
  kon: 3.15e+06 M⁻¹ s⁻¹
[4]
  kd relative to VHH1 kd: > 6 fold of VHH1 kd
[2]
  EC50 (pM) of intact construct C10, HEK Blue cell-based reporter assay: 3970 pM
  Fold Change (Intact/Cleaved), construct C10, HEK Blue assay: 202 fold
  Fold Change (Intact/Parental), construct C10, HEK Blue assay: 118 fold

## B11
[4]
  kd relative to VHH1 kd: > 6 fold of VHH1 kd

## B12
[4]
  kd relative to VHH1 kd: > 6 fold of VHH1 kd

## B13
[5]
  EC50 (read off the curve), %pSTAT5+ of CD4+FoxP3+CD25+ cells: ~3000 pM

## B14
[5]
  EC50 (read off the curve), %pSTAT5+ of CD4+FoxP3+CD25+ cells: ~4000 pM
